Experiments:
GST-Id3 = target: T1, GST-Id3 (Homo sapiens, UniProt Q02535); experiment: GST pull-down assay with GST-Id3; format: binding; conditions: in vitro-translated 35S-labeled ENH (FIG. 2B Right)
T1 construct: made in house; host or cells: E. coli BL21 Star (Invitrogen)
T1 sequence (Q02535 1-119): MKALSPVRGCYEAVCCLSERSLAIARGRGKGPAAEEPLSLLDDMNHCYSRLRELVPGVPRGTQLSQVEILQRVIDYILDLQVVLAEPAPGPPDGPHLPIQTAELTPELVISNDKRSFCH
Description: (§1) GST Pull-Down Assay, Western Blot, and Coimmunoprecipitation: GST fusion proteins were purified from BL21 Star (Invitrogen). GST pull-down assay was performed as described in lavarone, A. et al., (1994), Genes Dev., 8:1270-1284. For Wetern blot analysis, cellular pellets were lysed in ice-cold RIPA buffer (50 mM Tris, pH 7.5/150 mM NaCl/1% Nonidet P-40/0.5% sodium deoxycholate/0.1% SDS) containing Complete Mini protease inhibitor pellet (Roche) and 1 mM PMSF. Lysates were electrophoresed on SDS/PAGE gels and transferred to nitrocellulose membrane (Amersham Pharmacia Biotech). Membranes were stained with antibodies against ENH, Id2 (Santa Cruz Biotechnology), and α-tubulin (Sigma), and blots were developed by using ECLWestem Blotting Detection System (Amersham Pharmacia Biotech). The anti-ENH antibody is a rabbit polyclonal that was produced in collaboration with Zymed against a peptide that is fully conserved in the mouse sequence (KQQNGPPRKHI (SEQ ID NO:1)). Coimmunoprecipitation of Id2 and ENH from cells transfected with pcDNA.3-Id2 and p3XFlag-ENH was performed as described (lavarone, A. et al., (2004), Nature, 432:1040-1045).
(§2) Given the high homology among the HLH domains of the three Id proteins, it was asked whether Id1 and Id3 could also bind ENH in this assay. Indeed, both GST-Id1 and GST-Id3 bound to full-length ENH (FIG. 2B Right).

Id2 = target: T2, Id2 (Homo sapiens, UniProt Q02363); experiment: Coimmunoprecipitation of Id2 and Flag-tagged ENH in transfected Cos-1 cells; format: binding; conditions: Cos-1 cells transfected with Id2 and Flag-tagged ENH
T2 construct: expressed in transfected cells; host or cells: Cos-1
T2 sequence (Q02363 1-134): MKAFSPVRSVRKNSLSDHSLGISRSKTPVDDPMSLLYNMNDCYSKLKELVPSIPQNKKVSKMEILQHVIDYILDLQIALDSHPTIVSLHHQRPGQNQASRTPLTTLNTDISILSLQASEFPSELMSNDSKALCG
Description: as §1
To determine whether Id2 binds ENH in vivo, coimmunoprecipitation experiments were performed after transfecting Id2 and Flag-tagged ENH in Cos-1. Anti-Id2 antibodies precipitated full-length Flag-ENH but not Flag-ENHδLIM (FIG. 2C). […]

[1] = test system: endogenous Id2 in SK-N-SH cells; experiment: Subcellular localization of endogenous Id2 after ectopic Flag-ENH (immunofluorescence); format: cell-based, human; conditions: SK-N-SH transiently transfected with Flag-ENH (FIG. 4B)
Description: Quantitative Analysis of Subcellular Localization of Id2 and siRNA Experiments: SK-N-SH-Flag-Id2 cells untreated or treated with RA for 48 h were fixed in 4% paraformaldehyde. Flag-Id2 and endogenous ENH were immunostained by using Flag-M2 (Sigma) and ENH antibodies, respectively. SK-N-SH cells were transfected with vector or p3XFlag-ENH and immunostained by using Flag-M2 and Id2 (Zymed) antibodies. For silencing of ENH, ENH siRNA (siGenome Smartpool reagent M-006930-00) and control, nontargeting (siGenome Smartpool reagent D-001206-13) siRNA mixtures were purchased from Dharmacon. SK-N-SH cells stably expressing Flag-Id2 were treated with vehicle control or RA for 48 h and transfected with 60 nM siRNAs by using Lipofectamine 2000 (Invitrogen). Thirty-six hours after transfection cells were fixed in 4% paraformaldehyde and immunostained by using Flag-M2 antibodies. Parallel cultures were analyzed by Western blot. Secondary antibodies were FITC- or Cy3-conjugated anti-rabbit and Cy3-conjugated anti-mouse (Jackson ImmunoResearch). Nuclei were counterstained with DAPI. Slides were mounted in 90% glycerol in PBS and analyzed on an Olympus epifluorescence microscope. The percentage of cells displaying Id2 staining in the nucleus was scored by counting at least 500 cells from triplicate samples. […]

GST-Id1 = target: T3, GST-Id1 (Homo sapiens, UniProt P41134); experiment: GST pull-down assay with GST-Id1; format: binding; conditions: in vitro-translated 35S-labeled ENH (FIG. 2B Right)
T3 construct: made in house; host or cells: E. coli BL21 Star (Invitrogen)
T3 sequence (P41134 1-155): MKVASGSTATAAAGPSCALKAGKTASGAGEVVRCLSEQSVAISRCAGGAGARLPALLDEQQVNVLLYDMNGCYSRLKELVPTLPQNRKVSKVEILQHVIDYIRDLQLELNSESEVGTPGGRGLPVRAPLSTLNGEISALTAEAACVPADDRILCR
Description: as §1, §2

[2] = test system: Id2 inhibition of E47-mediated transcription; experiment: E-box-luciferase reporter assay; format: cell-based, human; conditions: E-box-luc with E47, Id2 and increasing amounts of ENH (0.375, 0.5, 0.625 μg); FIG. 6A
Description: Luciferase Assay: The luciferase reporter construct 5xE-box-luciferase (Lasorella, A. et al., (1996) Mol. Cell. Biol., 16:2570-2578) was cotransfected with pcDNA.3-E47 and pcDNA.3 vector or pcDNA.3-Id2 and pcDNA.3-ENH into SK-N-SH cells. pCMV-β-gal was cotransfected for normalization. Twenty-four hours later luciferase and β-galactosidase activities were measured as described (Lasorella, A. et al., (2000) Nature, 407:592-598).
To test the hypothesis that ENH restrains the inhibitory effects of Id2 on bHLH-mediated transcription by acting as a cytoplasmic retention factor for Id2, luciferase reporter assays were performed with five multimerized E-boxes driving expression of luciferase (E-box-luc). The E-box-luc plasmid was transfected in the presence of mammalian expression vectors for the ubiquitously expressed bHLH protein E47, Id2, and increasing amounts of ENH. Id2 inhibition of E47-mediated transcription was relieved by coexpression of ENH in a dose-dependent manner (FIG. 6A).

GST-δHLHId2 = experiment: GST pull-down assay with GST-Id2 lacking the HLH domain; format: binding; conditions: in vitro-translated 35S-labeled ENH (FIG. 2B Right)
Description: as §1
(§3) To validate the specificity of the binding between ENH and Id2 and identify the domains that mediate this interaction, GST fusion proteins and in vitro-translated proteins in pull-down assays.

GST-Id2 = target: T4, GST-Id2 (Homo sapiens, UniProt Q02363); experiment: GST pull-down assay with GST-Id2; format: binding; conditions: in vitro-translated 35S-labeled proteins, autoradiography (FIG. 2B)
T4 construct: made in house; host or cells: E. coli BL21 Star (Invitrogen)
T4 sequence (Q02363 1-134): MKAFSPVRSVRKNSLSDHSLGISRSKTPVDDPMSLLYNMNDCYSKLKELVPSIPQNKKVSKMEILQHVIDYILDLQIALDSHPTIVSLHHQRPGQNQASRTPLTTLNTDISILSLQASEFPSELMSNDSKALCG
Description: as §1, §3

binding of GST-Id3 to ENH (GST-Id3): bound | precipitation by anti-Id2 antibodies (Id2; Western blot for Flag (FIG. 2C)): precipitated | Id2 in Flag immunoprecipitates (Id2; Western blot for Id2 (FIG. 2D)): contained Id2 | binding of GST-Id1 to ENH (GST-Id1): bound | Id2 inhibition of E47-mediated transcription (luciferase activity) [2]: relieved | binding of GST-δHLHId2 to ENH (GST-δHLHId2): failed to bind | binding of GST-Id2 to ENH constructs (GST-Id2): bound efficiently
B1: ENH: actin cytoskeleton-associated PDZ-LIM protein ENH (Enigma Homologue), full-length, SEQ ID NO:4; also used Flag-tagged (protein, listed as Homo sapiens)
chain: MSNYSVSLVGPAPWGFRLQGGKDFNMPLTISSLKDGGKAAQANVRIGDVVLSIDGINAQGMTHLEAQNKIKGCTGSLNMTLQRASAAPKPEPVPVQKGEPKEVVKPVPITSPAVSKVTSTNNMAYNKAPRPFGSVSSPKVTSIPSPSSAFTPAHATTSSHASPSPVAAVTPPLFAASGLHANANLSADQSPSALSAGKTAVNVPRQPTVTSVCSETSQELAEGQRRGSQGDSKQQNGPPRKHIVERYTEFYHVPTHSDASKKRLIEDTEDWRPRTGTTQSRSFRILAQITGTEHLKESEADNTKKANNSQEPSPQLASSVASTRSMPESLDSPTSGRPGVTSLTTAAAFKPVGSTGVIKSPSWQRPNQGVPSTGRISNSATYSGSVAPANSALGQTQPSDQDTLVQRAEHIPAGKRTPMCAHCNQVIRGPFLVALGKSWHPEEFNCAHCKNTMAYIGFVEEKGALYCELCYEKFFAPECGRCQRKILGEVINALKQTWHVSCFVCVACGKPIRNNVFHLEDGEPYCETDYYALFGTICHGCEFPIEAGDMFLEALGYTWHDTCFVCSVCCESLEGQTFFSKKDKPLCKKHAHSVNF
subcellular localization of endogenous Id2 [1]: translocation of Id2 to the cytoplasm
